Data published in patent US20240409650A1 (ARMAGEN, published 2024).
Each block holds one binder with its values, some of them ahead of it.

Experiments:
[1] = target: T1, HIR extracellular domain (ECD) (human, UniProt P06213 28-956, limits assumed); experiment: ELISA on plated HIR ECD; ED50 normalised with a MW of 375 kDa
T1 construct: extracellular domain; also called HIR ECD; IR ECD

[2] = target: T1, HIR extracellular domain (ECD); experiment: ELISA, HIR ECD plated on Nunc-Maxisorb wells, biotinylated goat anti-human IgG detection; ED50 by inspection
[3] = target: T1, HIR extracellular domain (ECD); experiment: ELISA on HIR ECD; ED50 normalised with a MW of 350 kDa
[4] = target: T1, HIR extracellular domain (ECD); experiment: ELISA on lectin affinity purified HIR ECD; printed as ED50, non-linear regression
[5] = target: T1, HIR extracellular domain (ECD); experiment: ELISA on HIR ECD (FIG. 17); the same 166 ng/mL ED50 normalised with a MW of 375 kDa
[6] = target: T1, HIR extracellular domain (ECD); experiment: ELISA on HIR ECD; ED50 normalised with a MW of 150 kDa
[7] = target: T1, HIR extracellular domain (ECD); experiment: ELISA on plated HIR ECD; ED50 normalised with a MW of 150 kDa

EC50 [1]: 0.93 nM | EC50 [2]: 0.35 µg/mL
B1: HIRMAb-L-NAGLU fusion protein (23 amino acid L linker) (antibody, human IgG1, human IgG3, kappa)
heavy: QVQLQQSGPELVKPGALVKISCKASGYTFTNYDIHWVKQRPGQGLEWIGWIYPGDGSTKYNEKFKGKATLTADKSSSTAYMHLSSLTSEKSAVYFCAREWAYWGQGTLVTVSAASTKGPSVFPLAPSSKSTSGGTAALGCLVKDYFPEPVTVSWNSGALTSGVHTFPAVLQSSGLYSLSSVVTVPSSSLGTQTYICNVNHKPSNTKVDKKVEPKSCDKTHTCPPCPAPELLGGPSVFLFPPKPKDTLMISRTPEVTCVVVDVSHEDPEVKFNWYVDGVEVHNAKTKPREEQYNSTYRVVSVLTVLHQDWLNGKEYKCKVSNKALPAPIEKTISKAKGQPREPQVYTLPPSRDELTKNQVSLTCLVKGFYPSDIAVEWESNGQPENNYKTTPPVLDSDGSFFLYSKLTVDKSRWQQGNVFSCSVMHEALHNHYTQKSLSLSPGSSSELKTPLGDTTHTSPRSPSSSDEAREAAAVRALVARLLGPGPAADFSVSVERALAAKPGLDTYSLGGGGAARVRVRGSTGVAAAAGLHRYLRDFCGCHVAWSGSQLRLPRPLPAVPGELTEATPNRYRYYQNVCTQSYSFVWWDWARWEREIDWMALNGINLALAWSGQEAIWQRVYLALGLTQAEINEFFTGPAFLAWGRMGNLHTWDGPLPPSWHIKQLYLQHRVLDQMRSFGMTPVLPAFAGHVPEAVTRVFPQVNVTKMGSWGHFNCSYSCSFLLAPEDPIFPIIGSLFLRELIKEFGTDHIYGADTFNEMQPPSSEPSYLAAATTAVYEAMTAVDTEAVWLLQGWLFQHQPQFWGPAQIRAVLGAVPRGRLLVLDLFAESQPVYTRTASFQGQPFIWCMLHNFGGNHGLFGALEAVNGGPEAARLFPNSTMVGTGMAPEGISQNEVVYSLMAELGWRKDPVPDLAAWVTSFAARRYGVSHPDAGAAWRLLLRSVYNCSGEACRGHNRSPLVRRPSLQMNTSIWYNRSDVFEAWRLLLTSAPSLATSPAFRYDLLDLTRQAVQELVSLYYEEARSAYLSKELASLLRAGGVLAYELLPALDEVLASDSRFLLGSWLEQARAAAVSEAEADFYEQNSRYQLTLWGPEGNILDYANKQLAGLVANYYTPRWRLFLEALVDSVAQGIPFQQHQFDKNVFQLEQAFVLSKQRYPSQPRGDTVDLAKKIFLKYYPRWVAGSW
light: DIQMTQSPSSLSASLGERVSLTCRASQDIGGNLYWLQQGPDGTIKRLIYATSSLDSGVPKRFSGSRSGSDYSLTISSLESEDFVDYYCLQYSSSPWTFGGGTKLEIKRTVAAPSVFIFPPSDEQLKSGTASVVCLLNNFYPREAKVQWKVDNALQSGNSQESVTEQDSKDSTYSLSSTLTLSKADYEKHKVYACEVTHQGLSSPVTKSFNRGEC
notes: COS-derived (transient expression), purified on protein A. Hetero-tetramer; also called HIR Ab-L-NAGLU fusion protein; IgG-L-NAGLU

EC50 [3]: 0.47 nM | EC50 [4]: 0.166 µg/mL | EC50 [5]: 0.44 nM
B2: HIRMAb-LL-NAGLU fusion protein (31 amino acid LL linker) (antibody, human IgG1, human IgG3, kappa)
heavy: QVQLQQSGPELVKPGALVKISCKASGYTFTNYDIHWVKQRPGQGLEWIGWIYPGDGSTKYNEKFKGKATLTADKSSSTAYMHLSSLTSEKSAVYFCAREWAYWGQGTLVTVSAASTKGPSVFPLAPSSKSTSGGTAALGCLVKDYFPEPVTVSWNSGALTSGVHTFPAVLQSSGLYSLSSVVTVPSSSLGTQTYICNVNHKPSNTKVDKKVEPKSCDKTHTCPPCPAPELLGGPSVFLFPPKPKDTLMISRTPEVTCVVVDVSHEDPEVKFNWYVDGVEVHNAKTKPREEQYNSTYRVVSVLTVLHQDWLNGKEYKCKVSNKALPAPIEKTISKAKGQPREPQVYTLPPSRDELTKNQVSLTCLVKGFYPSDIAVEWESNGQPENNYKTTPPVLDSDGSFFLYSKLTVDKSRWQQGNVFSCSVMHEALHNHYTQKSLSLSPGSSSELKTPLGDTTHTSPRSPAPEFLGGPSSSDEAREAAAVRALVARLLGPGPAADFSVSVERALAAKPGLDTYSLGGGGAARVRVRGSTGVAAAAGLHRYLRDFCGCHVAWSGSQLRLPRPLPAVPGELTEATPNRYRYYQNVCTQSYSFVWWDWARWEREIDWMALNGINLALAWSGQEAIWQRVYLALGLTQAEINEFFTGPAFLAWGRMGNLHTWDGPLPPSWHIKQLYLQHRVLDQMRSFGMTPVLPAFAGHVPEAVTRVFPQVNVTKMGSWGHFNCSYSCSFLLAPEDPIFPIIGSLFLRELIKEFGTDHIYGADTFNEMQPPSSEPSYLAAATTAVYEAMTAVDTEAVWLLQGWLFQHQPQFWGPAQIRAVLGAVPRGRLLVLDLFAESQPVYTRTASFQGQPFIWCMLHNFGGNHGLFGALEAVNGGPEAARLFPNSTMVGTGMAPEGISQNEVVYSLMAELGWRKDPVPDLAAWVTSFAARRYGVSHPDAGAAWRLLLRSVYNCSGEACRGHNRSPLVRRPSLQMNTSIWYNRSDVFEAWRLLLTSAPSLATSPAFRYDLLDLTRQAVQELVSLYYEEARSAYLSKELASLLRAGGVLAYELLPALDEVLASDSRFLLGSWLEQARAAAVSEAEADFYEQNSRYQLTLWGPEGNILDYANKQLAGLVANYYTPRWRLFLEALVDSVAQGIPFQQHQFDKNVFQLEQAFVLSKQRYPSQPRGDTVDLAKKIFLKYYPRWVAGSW
light: B1 light
notes: also called HIR Ab HC-LL-NAGLU; printed in places as HIRMAb-NAGLU or HIR Ab-NAGLU fusion protein

EC50 [6]: 0.29 nM | EC50 [7]: 0.43 nM | EC50 [4]: 0.043 µg/mL | EC50 [2]: 0.065 µg/mL
B3: chimeric HIRMAb (chimeric monoclonal antibody against the human insulin receptor) (antibody, human IgG1, kappa)
heavy: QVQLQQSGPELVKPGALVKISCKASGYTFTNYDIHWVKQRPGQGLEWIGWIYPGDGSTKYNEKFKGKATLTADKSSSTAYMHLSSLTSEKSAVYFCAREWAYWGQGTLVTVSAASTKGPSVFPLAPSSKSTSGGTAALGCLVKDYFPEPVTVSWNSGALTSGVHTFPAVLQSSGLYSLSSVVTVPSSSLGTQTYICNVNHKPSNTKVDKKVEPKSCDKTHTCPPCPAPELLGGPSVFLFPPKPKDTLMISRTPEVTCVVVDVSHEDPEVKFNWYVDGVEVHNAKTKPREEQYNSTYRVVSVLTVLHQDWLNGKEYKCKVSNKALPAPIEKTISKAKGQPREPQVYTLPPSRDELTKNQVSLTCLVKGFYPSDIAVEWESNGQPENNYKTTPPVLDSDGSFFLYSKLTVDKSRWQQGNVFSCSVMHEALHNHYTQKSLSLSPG
light: B1 light
notes: also called HIR Ab; HIRMAb alone
